Laboratory results published in paper PMC3744504, “Soluble Variants of Human Recombinant Glutaminyl Cyclase” (PLoS ONE, 2013).

Target: the molecule itself
Test: SEC; analytical size exclusion chromatography (Superdex 5/150 column) on 50 µl of sample after the Ni-affinity step

B1: wild type human Glutaminyl Cyclase (hQPCT), Ala33-Leu361, His6-tagged (enzyme, UniProt Q16769 33-361, looked up)
chain: ASAWPEEKNYHQPAILNSSALRQIAEGTSISEMWQNDLQPLLIERYPGSPGSYAARQHIMQRIQRLQADWVLEIDTFLSQTPYGYRSFSNIISTLNPTAKRHLVLACHYDSKYFSHWNNRVFVGATDSAVPCAMMLELARALDKKLLSLKTVSDSKPDLSLQLIFFDGEEAFLHWSPQDSLYGSRHLAAKMASTPHPPGARGTSQLHGMDLLVLLDLIGAPNPTFPNFFPNSARWFERLQAIEHELHELGLLKDHSLEGRYFQNYSYGGVIQDDHIPFLRRGVPVLHLIPSPFPEVWHTMDDNEENLDESTIDNLNKILQVFVLEYLHL
notes: human glutaminyl-peptide cyclotransferase (glutaminyl cyclase), residues Ala33-Leu361, cloned in pQE80L; Not glycosylated (E. coli); Apo-protein mass by MALDI 38735 Da; No preparative size exclusion step was applied to the wild type; also called wild type hQPCT; Glutaminyl-peptide Cyclotransferase; not shown: His6, N-terminal, kept
binding result: binds
